The results in this text go back to patent US20220396632A1 (VERSEAU THERAPEUTICS, published 2022).

Non-standard residues stand in square brackets, D forms with d. No end group written: not given here. *: point of attachment. Biotin = O=C1N[C@H]2[C@H](CS[C@H]2CCCCC(=O)*)N1; sY = N[C@@H](Cc1ccc(OS(=O)(=O)O)cc1)C(=O)O

In assay [1] the target is T1, Biotin Y46,48,51(SO3) PSGL-1(42-62) peptide (human, sulfotyrosine at Y46, Y48 and Y51; C-terminal Lys-biotin).
T1 construct: also called fully sulfated N-terminal PSGL-1 peptide
T1 peptide: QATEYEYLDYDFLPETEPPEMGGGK
The assay is described as follows: ELISA, immobilized biotin peptide. The method, then: (§1) A typical ELISA was performed by coating high binding half-well plates (Corning Cat. #3690) with 3 ug/mL/25 ul per well of biotinylated N-terminal PSGL-1 peptides, which incorporated residues 42 to 62 of the protein, in PBS, pH 7.4, overnight at 4° C. The peptide was unmodified or contained sulfated tyrosine at all 3 tyrosine positions (46, 48, and 51) or at one position (tyr51) (Table 7).
(§2) PSGL-1 protein or peptide served as a positive control. […] […] […] For each antibody, duplicate values were averaged and average assay background was subtracted.

Assay [2] addresses T2, Biotin PSGL-1(42-62) peptide, unmodified (human, C-terminal Lys-biotin).
T2 construct: Residues 42-62 followed by GGGK-biotin; also called WT; wild-type
T2 peptide: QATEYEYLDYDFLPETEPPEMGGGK
As to the kind of experiment: ELISA, immobilized biotin peptide. The method, then: as §1, §2
In general terms: An ELISA detects its analyte on a solid surface through an enzyme-linked reagent.

Assay [3] deals with T3, Scrambled Y42,52,63(SO3) PSGL-1(42-62) biotin peptide (sulfotyrosine at peptide positions 1, 11 and 22; C-terminal Lys-biotin).
T3 peptide: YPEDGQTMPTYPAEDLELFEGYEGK
The assay is described as follows: ELISA, immobilized biotin peptide. On the procedure: as §1, §2

The target in assay [4] is T4, Sulfotyrosine CCR2b biotin peptide (human).
T4 construct: also called CCR2b peptide
T4 peptide: TTFFD[sY]D[sY]GAPSHGGK(Biotin)
The assay is described as follows: ELISA, 50 nM mAb. On the procedure: (§3) Recombinant PSGL-1-hFc1 chimera protein consisting of PSGL-1's extracellular domain (ECD) served as a positive control. […] Primary antibody was added (25 ul per well) in duplicate at 50 nM in assay buffer (blocking buffer containing 0.05% Tween®20) into test and control (just blocked) wells and the plate incubated for 45 min at 37° C.

Assay [5] has as its target T5, Human complement C4 protein (Millipore Sigma, Cat. 204886) (human, UniProt P0C0L4 20-675; P0C0L4 680-1446; P0C0L4 1454-1744, limits assumed, natural sulfotyrosines).
T5 construct: mature
As to the kind of experiment: ELISA, 50 nM mAb. On the procedure: as §3

In assay [6] the target is T6, Sulfotyr fibrinogen γ peptide (not fully specified; Y8 and Y12 sulfated (SO3); C-terminal biotin).
T6 construct: also called Fibrinogen gamma peptide; human sulfotyrosinylated fibrinogen peptide
T6 peptide: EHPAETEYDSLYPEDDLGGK
As to the kind of experiment: ELISA, 50 nM mAb. The method, then: as §3

Assay [7] addresses T7, Sulfotyrosine D6 biotin peptide (human).
T7 construct: also called D6 peptide
T7 peptide: ENSSFY[sY][sY]D[sY]LDEVAFGGK(Biotin)
The assay is described as follows: ELISA, 50 nM mAb. On the procedure: as §3

Assay [8] has as its target T8, Human fibrinogen protein (ThermoFisher, RP-43142) (human, UniProt P02671 20-629; P02675 31-491; P02679 27-453, limits assumed, natural sulfotyrosines).
T8 construct: mature; Native dimer with 3 pairs of non-identical chains; also called gamma-fibrinogen; γ fibrinogen protein
T8 sequence (looked up) 1: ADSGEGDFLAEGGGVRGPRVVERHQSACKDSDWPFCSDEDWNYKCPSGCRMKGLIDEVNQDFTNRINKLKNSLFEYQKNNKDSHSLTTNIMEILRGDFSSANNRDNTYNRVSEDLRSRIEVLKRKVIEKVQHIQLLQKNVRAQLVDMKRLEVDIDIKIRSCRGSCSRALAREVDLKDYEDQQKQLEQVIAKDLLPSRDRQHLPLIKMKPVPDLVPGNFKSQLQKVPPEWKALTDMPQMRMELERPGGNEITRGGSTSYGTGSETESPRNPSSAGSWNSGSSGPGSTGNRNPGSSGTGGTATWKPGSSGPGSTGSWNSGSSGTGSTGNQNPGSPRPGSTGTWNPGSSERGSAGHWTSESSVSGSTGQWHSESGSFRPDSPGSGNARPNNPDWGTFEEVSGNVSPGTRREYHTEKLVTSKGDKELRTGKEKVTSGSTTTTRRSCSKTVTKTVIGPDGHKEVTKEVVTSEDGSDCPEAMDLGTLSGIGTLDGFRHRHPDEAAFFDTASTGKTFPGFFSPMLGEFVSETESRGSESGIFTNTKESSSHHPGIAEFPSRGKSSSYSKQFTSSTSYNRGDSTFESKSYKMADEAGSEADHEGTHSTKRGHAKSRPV
T8 sequence (looked up) 2: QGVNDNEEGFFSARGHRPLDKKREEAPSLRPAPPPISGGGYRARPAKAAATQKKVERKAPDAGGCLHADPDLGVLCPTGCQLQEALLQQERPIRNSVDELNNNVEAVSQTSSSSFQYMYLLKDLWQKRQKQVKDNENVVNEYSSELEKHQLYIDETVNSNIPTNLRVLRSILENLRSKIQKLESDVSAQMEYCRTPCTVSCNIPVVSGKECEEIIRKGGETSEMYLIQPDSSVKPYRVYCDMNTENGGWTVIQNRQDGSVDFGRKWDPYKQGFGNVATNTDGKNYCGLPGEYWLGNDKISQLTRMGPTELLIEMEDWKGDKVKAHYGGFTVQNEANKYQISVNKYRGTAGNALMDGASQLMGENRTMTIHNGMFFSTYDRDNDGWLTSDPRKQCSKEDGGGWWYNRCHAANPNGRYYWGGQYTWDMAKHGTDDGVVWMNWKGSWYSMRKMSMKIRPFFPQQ
T8 sequence (looked up) 3: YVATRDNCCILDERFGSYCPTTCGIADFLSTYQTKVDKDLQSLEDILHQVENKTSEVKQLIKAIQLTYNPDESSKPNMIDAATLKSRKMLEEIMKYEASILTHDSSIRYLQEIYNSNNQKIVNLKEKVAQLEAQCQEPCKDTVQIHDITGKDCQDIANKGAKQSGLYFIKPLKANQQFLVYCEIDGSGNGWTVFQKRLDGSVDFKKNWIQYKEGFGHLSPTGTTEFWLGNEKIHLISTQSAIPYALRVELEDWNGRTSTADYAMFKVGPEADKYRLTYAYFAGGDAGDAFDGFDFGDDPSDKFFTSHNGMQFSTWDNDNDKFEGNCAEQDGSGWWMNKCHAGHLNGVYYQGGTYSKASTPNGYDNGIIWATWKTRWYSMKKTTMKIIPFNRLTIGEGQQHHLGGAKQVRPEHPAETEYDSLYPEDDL
As to the kind of experiment: ELISA, 50 nM mAb. On the procedure:
as §3

A further assay deals with T9, SulfoCCK biotin peptide (human).
T9 construct: also called sulfotyrosine CCK peptide
T9 peptide: SHRISDRD[sY]MGWMDFGGK(Biotin)
The assay is described as follows: ELISA, 50 nM mAb. On the procedure: as §3

The target in the next assay is T10, SulfoTyr C4 peptide (not fully specified; Y4, Y7 and Y9 sulfated (SO3); C-terminal biotin).
T10 construct: also called C4 alpha chain peptide; human sulfotyrosinylated C4 peptide
T10 peptide: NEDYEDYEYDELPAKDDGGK
As to the kind of experiment: ELISA, 50 nM mAb. The method, then:
as §3

For assay [9], the target named is T11, Cynomolgus PSGL-1(ECD)-hFc1 (cynomolgus macaque).
T11 construct: also called Cyno PSGL1-Fc; Cyno PSGL-1(ECD)-Fc
As to the kind of experiment: ELISA, 20 nM mAb on plate cyno PSGL-1(ECD)-Fc. The method, then:
Antibody binding to plate-immobilized cyno PSGL-1(ECD) was determined either at one concentration (20 nM) or by generating full antibody binding curves (0.003-200 nM). A typical ELISA was performed by overnight coating at 4° C. with 3 ug/mL/25 ul per well of recombinant cyno PSGL-1(ECD) protein in PBS, pH 7.4, in high binding half-well plates (Corning Cat. #3690). […] Anti-PSGL-1 IgG in assay buffer (blocking buffer containing 0.05% tween 20) was added into test and control wells (20 nM/25 ul/well) and the plate incubated for 45 min at 37° C. […] The plate was incubated for 45 min at 37° C., and mAb bound to plate-immobilized target determined at A450 nm using HRP substrate (3,3′,5,5′-tetramethylbenzidine (TMB)). For each antibody, duplicate values were averaged and assay background subtracted.

Assay [10] has as its target T12, Recombinant human PSGL-1(ECD)-hFc1 (R&D Systems, Cat. 3345-PS) (human, UniProt Q14242 42-305).
T12 construct: Bought; Gln42-Val295 counted on AAC50061; also called PSGL-1-Fc; PSGL-1-hFc1 chimera; not shown: human IgG1 Fc, Pro100-Lys330
T12 sequence: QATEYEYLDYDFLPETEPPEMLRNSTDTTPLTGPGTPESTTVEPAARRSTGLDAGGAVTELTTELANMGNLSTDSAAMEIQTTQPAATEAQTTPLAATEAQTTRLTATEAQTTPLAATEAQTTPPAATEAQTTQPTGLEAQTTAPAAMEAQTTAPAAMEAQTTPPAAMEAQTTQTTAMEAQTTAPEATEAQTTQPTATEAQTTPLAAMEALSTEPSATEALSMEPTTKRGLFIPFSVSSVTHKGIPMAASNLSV
As to the kind of experiment: ELISA, 50 nM mAb. On the procedure:
as §3

T5 sequence (P0C0L4 20-675 limits assumed, form in doubt, chain 1 of 3): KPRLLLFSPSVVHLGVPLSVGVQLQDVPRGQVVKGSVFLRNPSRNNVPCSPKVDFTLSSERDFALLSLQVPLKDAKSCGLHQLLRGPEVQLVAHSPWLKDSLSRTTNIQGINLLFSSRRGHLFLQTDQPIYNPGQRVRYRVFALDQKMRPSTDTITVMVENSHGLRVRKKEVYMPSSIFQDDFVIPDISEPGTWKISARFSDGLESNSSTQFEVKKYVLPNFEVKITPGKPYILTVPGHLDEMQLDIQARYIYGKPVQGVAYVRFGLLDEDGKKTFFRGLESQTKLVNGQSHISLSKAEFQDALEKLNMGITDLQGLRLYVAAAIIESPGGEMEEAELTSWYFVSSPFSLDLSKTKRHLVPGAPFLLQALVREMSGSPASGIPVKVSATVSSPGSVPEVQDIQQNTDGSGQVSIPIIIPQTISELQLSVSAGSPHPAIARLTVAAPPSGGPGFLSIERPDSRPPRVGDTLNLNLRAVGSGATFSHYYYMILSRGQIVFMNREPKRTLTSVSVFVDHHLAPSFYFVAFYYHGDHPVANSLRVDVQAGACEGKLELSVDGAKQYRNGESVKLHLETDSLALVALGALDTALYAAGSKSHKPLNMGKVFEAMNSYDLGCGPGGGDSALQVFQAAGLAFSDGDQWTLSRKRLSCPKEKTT
T5 sequence (P0C0L4 680-1446 limits assumed, form in doubt, chain 2 of 3): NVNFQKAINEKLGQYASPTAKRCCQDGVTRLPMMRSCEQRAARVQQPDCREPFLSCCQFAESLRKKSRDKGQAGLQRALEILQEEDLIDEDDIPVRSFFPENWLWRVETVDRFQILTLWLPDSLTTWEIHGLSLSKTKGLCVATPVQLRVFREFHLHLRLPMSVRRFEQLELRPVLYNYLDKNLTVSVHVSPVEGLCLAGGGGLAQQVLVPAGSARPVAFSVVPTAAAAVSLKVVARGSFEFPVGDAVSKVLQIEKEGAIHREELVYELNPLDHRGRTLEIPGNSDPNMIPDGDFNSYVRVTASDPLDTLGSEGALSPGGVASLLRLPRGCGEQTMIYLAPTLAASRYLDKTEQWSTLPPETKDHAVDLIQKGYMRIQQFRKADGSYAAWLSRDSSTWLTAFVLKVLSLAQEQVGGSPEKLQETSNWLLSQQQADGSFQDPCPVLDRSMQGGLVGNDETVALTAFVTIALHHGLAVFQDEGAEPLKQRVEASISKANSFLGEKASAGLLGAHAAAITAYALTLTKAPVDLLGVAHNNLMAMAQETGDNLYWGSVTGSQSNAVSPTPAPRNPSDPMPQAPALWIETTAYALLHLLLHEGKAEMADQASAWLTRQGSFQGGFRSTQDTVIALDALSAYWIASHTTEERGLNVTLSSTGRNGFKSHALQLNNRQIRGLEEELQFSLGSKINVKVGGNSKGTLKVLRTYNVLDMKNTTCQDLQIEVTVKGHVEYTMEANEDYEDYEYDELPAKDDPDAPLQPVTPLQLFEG
T5 sequence (P0C0L4 1454-1744 limits assumed, form in doubt, chain 3 of 3): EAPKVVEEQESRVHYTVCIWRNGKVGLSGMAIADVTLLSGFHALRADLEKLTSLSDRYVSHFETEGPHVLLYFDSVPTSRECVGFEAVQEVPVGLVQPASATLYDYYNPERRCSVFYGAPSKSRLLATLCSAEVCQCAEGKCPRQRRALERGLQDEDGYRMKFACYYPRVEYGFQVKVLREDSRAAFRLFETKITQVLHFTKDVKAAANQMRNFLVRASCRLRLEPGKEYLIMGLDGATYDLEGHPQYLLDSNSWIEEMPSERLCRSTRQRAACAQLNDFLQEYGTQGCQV

B1: 01A11 (antibody, IgG4, V domains shown)
VH: EVKLLESGGGLVQPGGSLRLSCATSGFSFSDYWMSWVRQAPGKGLEWVASIKKDGSEKYYVDSVKGRFTISRDNAKNSLYVQMNSLRAEDTAIYYCVVFGAWGPGTLVTVSS
VL: DIVMTQTPLSLPVTLGQPASISCRSGRSLVYSDGNTYLNWFQQRPGQSPRRLIYKVSNRDSGVPDRFSGGGSGTDFTLKISRVEAEDVAIYYCMQGTHWPPTFGQGTKLEIK
With B1, the figures for the “A450nm, 20 nM mAb” value in [1], in assay [2] and in assay [3] were 2.67 A450nm, 1.12 A450nm and 0.03 A450nm, respectively. In addition, the binding result in [3] was “no binding (tested: 20 nM)”. Further, the “binding normalized to PSGL-1” value amounted to 0.63 in [4]; 0.79 in assay [5]; 0.09 in [6]; 0.11 in assay [7]; 0.17 in [8]; 0.63 in the assay with SulfoCCK biotin peptide. The “binding normalized to PSGL-1” value with SulfoTyr C4 peptide is 0.07. In addition, in [9], the A450nm was 0.78 A450 nm.

B2: 09B09 (antibody, IgG4, V domains shown)
VH: EVKLLESGGGLVQPGGSLRLSCAASGITFSTYAMMWVRQAPGKGLEWVSGISGSGASRYYADSVKGRFTISRDNSKNMLYLQMNSLRAEDTAVYYCAKKVLGRRKQYFDDWGQGTLVTVSS
VL: DIVMTQSPLSLPVTPGEPASISCRSSQSLLHSNGYNYLDWYLQRPGQSPQLLIYLGSHRASGVPDRFSGSGSGTEHTLKITTVAAEDVGVYYCMQALQSPPTFGQGTRLDIK
In the case of B2, the “A450nm, 20 nM mAb” value in [1] was determined as 2.8 A450nm. Moreover, the figures for the EC50 in assay [1] and in assay [2] were 70 pM and roughly 50 pM, respectively. In addition, the “binding normalized to PSGL-1” value in [4] was 0.26; in [5] it was 0.22; in [6] it was 0.3; in [7] it was 0.56; in assay [8], -0.15; with SulfoCCK biotin peptide, 0.25. For the same molecule, the “binding normalized to PSGL-1” value with SulfoTyr C4 peptide turned out to be 0.35. The A450nm turned out to be 1.96 A450nm in [10] and 1.77 A450 nm in [9]. Moreover, the binding result in [8] is recorded as “no binding (tested: 50 nM)”.

B3: 01A04 (antibody, IgG4, V domains shown)
VH: EVQLVQSGAEVKKPGASVKVSCKASGYTFTSYYIHWVRQAPGQGLEWMGIIRPSGGSTSYAQKFQGRVTMTRDTSTSTVYMELSSLRSEDTAMYYCARVGVGSFDYWGQGTLVTVSS
VL: DIQMTQSPSTLSASVGDRVTITCRASQSVSNWLAWYQQKPGKAPKLLIYKASSLESGVPSRFSGSGSGTEFTLTISSLQPDDFATYYCQWFRTFGPGTKVDIK
With B3, the “A450nm, 20 nM mAb” value in [1] came to 2.73 A450nm; in assay [2], 2.45 A450nm. Further, the “binding normalized to PSGL-1” value in assay [4] worked out at 0.08; in assay [5] it was 0.87; in assay [6], 0.16; in assay [7] it was 0.82; in assay [8], 0.8; in the assay with SulfoCCK biotin peptide, 0.87. Further, the “binding normalized to PSGL-1” value with SulfoTyr C4 peptide was determined as 0.24. Moreover, the A450nm in [9] worked out at 1.81 A450 nm.

B4: 01E01 (antibody, V domains shown)
VH: EVQLVQSGGGVVQPGRSLRLSCAASGFTFSSYGMHWVRQAPGKGLEWVAVISYDGSNKYYADSVKGRFTISRDNSKNTLYLQMHSLRAEDTAVYYCANLVGTTNSWGQGTLVTVSS
VL: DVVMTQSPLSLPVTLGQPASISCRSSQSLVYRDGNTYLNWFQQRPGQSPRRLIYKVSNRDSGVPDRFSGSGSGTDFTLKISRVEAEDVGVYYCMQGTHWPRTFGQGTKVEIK
On to B4, for which the figures for the “A450nm, 20 nM mAb” value in assay [1] and in assay [2] were 2.72 A450nm and 0.26 A450nm, respectively. In assay [3], the binding result is “no binding (tested: 20 nM)”. In addition, the A450nm in assay [10] was determined as 2.32 A450nm; in [9], 0.83 A450 nm. The “binding normalized to PSGL-1” value in [5] amounted to 0.94; in assay [6] it was 0.85; in assay [7], 0.75; in assay [8] it was 0.2; with SulfoCCK biotin peptide it was 0.58; with SulfoTyr C4 peptide, 0.83.

The EC50 is the concentration giving half of the maximal effect. Read a high EC50 as lower potency in that assay.
